Target: CD3 subunits (CD3E, CD3G, CD3D, CD3Z) (human, UniProt P07766 23-207; P09693 23-182; P04234 22-171; P20963 22-164)
Assay: cell-based or functional assay

CD3 subunits (CD3E, CD3G, CD3D, CD3Z), sequence (P07766 23-207, chain 1 of 4): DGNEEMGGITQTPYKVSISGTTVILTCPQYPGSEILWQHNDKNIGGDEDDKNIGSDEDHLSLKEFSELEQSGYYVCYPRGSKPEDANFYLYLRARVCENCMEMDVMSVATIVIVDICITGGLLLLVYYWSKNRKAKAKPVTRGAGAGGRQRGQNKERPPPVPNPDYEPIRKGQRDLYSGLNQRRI
CD3 subunits (CD3E, CD3G, CD3D, CD3Z), sequence (P09693 23-182, chain 2 of 4): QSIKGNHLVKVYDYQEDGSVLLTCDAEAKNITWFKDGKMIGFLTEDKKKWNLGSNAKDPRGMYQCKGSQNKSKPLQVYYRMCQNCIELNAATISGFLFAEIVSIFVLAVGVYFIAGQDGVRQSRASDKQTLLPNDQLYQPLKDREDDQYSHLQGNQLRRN
CD3 subunits (CD3E, CD3G, CD3D, CD3Z), sequence (P04234 22-171, chain 3 of 4): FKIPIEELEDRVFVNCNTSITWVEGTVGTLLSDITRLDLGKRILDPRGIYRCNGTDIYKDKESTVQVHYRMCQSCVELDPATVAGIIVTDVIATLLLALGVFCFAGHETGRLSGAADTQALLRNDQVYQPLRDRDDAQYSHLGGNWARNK
CD3 subunits (CD3E, CD3G, CD3D, CD3Z), sequence (P20963 22-164, chain 4 of 4): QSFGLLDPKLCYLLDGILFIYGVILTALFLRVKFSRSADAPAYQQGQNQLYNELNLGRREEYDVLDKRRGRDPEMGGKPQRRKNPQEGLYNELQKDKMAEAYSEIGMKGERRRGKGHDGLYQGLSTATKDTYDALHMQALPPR

Binder | CD3-recruiting activity (CD3-positive proportion, N=3), CD3-stably expressing 293T cells [%]
modified TCR of the combination of βCR and αCR (TCR) TCR alpha: NIQNPDPAVYQLRDSKSSDKSVCLFTDFDSQTNVSQSKDSDVYITDKTVLDMRSMDFKSNSAVAWSNKSDFACANAFNNSIIPEDTFFPSPESSCDVKLVEKSFETDTNLNFQNLSVIGFRILLLKVAGFNLLMTLRLWSS TCR beta: EDLKNVFPPEVAVFEPSEAEISHTQKATLVCLATGFYPDHVELSWWVNGKEVHSGVSTDPQPLKEQPALNDSRYCLSSRLRVSATFWQNPRNHFRCQVQFYGLSENDEWTQDRAKPVTQIVSAEAWGRADCGFTSESYQQGVLSATILYEILLGKATLYAVLVSALVLMAMVKRKDSRG | ≥ 80
modified TCR of the combination of βCR and α1 (TCR) TCR alpha: YQLRDSKSSDKSVCLFTDFDSQTNVSQSKDSDVYITDKTVLDMRSMDFKSNSAVAWSNKSDFACANAFNNSIIPEDTFFPSPESSCDVKLVEKSFETDTNLNFQNLSVIGFRILLLKVAGFNLLMTLRLWSS TCR beta: EDLKNVFPPEVAVFEPSEAEISHTQKATLVCLATGFYPDHVELSWWVNGKEVHSGVSTDPQPLKEQPALNDSRYCLSSRLRVSATFWQNPRNHFRCQVQFYGLSENDEWTQDRAKPVTQIVSAEAWGRADCGFTSESYQQGVLSATILYEILLGKATLYAVLVSALVLMAMVKRKDSRG | ≥ 80
modified TCR of the combination of βCR and α9 (TCR) TCR alpha: FNNSIIPEDTFFPSPESSCDVKLVEKSFETDTNLNFQNLSVIGFRILLLKVAGFNLLMTLRLWSS TCR beta: EDLKNVFPPEVAVFEPSEAEISHTQKATLVCLATGFYPDHVELSWWVNGKEVHSGVSTDPQPLKEQPALNDSRYCLSSRLRVSATFWQNPRNHFRCQVQFYGLSENDEWTQDRAKPVTQIVSAEAWGRADCGFTSESYQQGVLSATILYEILLGKATLYAVLVSALVLMAMVKRKDSRG | ≥ 80
modified TCR of the combination of βCR and α2 (TCR) TCR alpha: SVCLFTDFDSQTNVSQSKDSDVYITDKTVLDMRSMDFKSNSAVAWSNKSDFACANAFNNSIIPEDTFFPSPESSCDVKLVEKSFETDTNLNFQNLSVIGFRILLLKVAGFNLLMTLRLWSS TCR beta: EDLKNVFPPEVAVFEPSEAEISHTQKATLVCLATGFYPDHVELSWWVNGKEVHSGVSTDPQPLKEQPALNDSRYCLSSRLRVSATFWQNPRNHFRCQVQFYGLSENDEWTQDRAKPVTQIVSAEAWGRADCGFTSESYQQGVLSATILYEILLGKATLYAVLVSALVLMAMVKRKDSRG | ≥ 80
modified TCR of the combination of βCR and α10 (TCR) TCR alpha: IPEDTFFPSPESSCDVKLVEKSFETDTNLNFQNLSVIGFRILLLKVAGFNLLMTLRLWSS TCR beta: EDLKNVFPPEVAVFEPSEAEISHTQKATLVCLATGFYPDHVELSWWVNGKEVHSGVSTDPQPLKEQPALNDSRYCLSSRLRVSATFWQNPRNHFRCQVQFYGLSENDEWTQDRAKPVTQIVSAEAWGRADCGFTSESYQQGVLSATILYEILLGKATLYAVLVSALVLMAMVKRKDSRG | ≥ 80
modified TCR of the combination of βCR and α8 (TCR) TCR alpha: CANAFNNSIIPEDTFFPSPESSCDVKLVEKSFETDTNLNFQNLSVIGFRILLLKVAGFNLLMTLRLWSS TCR beta: EDLKNVFPPEVAVFEPSEAEISHTQKATLVCLATGFYPDHVELSWWVNGKEVHSGVSTDPQPLKEQPALNDSRYCLSSRLRVSATFWQNPRNHFRCQVQFYGLSENDEWTQDRAKPVTQIVSAEAWGRADCGFTSESYQQGVLSATILYEILLGKATLYAVLVSALVLMAMVKRKDSRG | ≥ 80
modified TCR of the combination of βCR and α5 (TCR) TCR alpha: LDMRSMDFKSNSAVAWSNKSDFACANAFNNSIIPEDTFFPSPESSCDVKLVEKSFETDTNLNFQNLSVIGFRILLLKVAGFNLLMTLRLWSS TCR beta: EDLKNVFPPEVAVFEPSEAEISHTQKATLVCLATGFYPDHVELSWWVNGKEVHSGVSTDPQPLKEQPALNDSRYCLSSRLRVSATFWQNPRNHFRCQVQFYGLSENDEWTQDRAKPVTQIVSAEAWGRADCGFTSESYQQGVLSATILYEILLGKATLYAVLVSALVLMAMVKRKDSRG | ≥ 80
modified TCR of the combination of βCR and α6 (TCR) TCR alpha: KSNSAVAWSNKSDFACANAFNNSIIPEDTFFPSPESSCDVKLVEKSFETDTNLNFQNLSVIGFRILLLKVAGFNLLMTLRLWSS TCR beta: EDLKNVFPPEVAVFEPSEAEISHTQKATLVCLATGFYPDHVELSWWVNGKEVHSGVSTDPQPLKEQPALNDSRYCLSSRLRVSATFWQNPRNHFRCQVQFYGLSENDEWTQDRAKPVTQIVSAEAWGRADCGFTSESYQQGVLSATILYEILLGKATLYAVLVSALVLMAMVKRKDSRG | ≥ 80
modified TCR of the combination of βCR and α3 (TCR) TCR alpha: NVSQSKDSDVYITDKTVLDMRSMDFKSNSAVAWSNKSDFACANAFNNSIIPEDTFFPSPESSCDVKLVEKSFETDTNLNFQNLSVIGFRILLLKVAGFNLLMTLRLWSS TCR beta: EDLKNVFPPEVAVFEPSEAEISHTQKATLVCLATGFYPDHVELSWWVNGKEVHSGVSTDPQPLKEQPALNDSRYCLSSRLRVSATFWQNPRNHFRCQVQFYGLSENDEWTQDRAKPVTQIVSAEAWGRADCGFTSESYQQGVLSATILYEILLGKATLYAVLVSALVLMAMVKRKDSRG | ≥ 80
modified TCR of the combination of βCR and α7 (TCR) TCR alpha: SNKSDFACANAFNNSIIPEDTFFPSPESSCDVKLVEKSFETDTNLNFQNLSVIGFRILLLKVAGFNLLMTLRLWSS TCR beta: EDLKNVFPPEVAVFEPSEAEISHTQKATLVCLATGFYPDHVELSWWVNGKEVHSGVSTDPQPLKEQPALNDSRYCLSSRLRVSATFWQNPRNHFRCQVQFYGLSENDEWTQDRAKPVTQIVSAEAWGRADCGFTSESYQQGVLSATILYEILLGKATLYAVLVSALVLMAMVKRKDSRG | ≥ 80
modified TCR consisting of β1 and αCR (TCR) TCR alpha: NIQNPDPAVYQLRDSKSSDKSVCLFTDFDSQTNVSQSKDSDVYITDKTVLDMRSMDFKSNSAVAWSNKSDFACANAFNNSIIPEDTFFPSPESSCDVKLVEKSFETDTNLNFQNLSVIGFRILLLKVAGFNLLMTLRLWSS TCR beta: SEAEISHTQKATLVCLATGFYPDHVELSWWVNGKEVHSGVSTDPQPLKEQPALNDSRYCLSSRLRVSATFWQNPRNHFRCQVQFYGLSENDEWTQDRAKPVTQIVSAEAWGRADCGFTSESYQQGVLSATILYEILLGKATLYAVLVSALVLMAMVKRKDSRG | ≥ 20
modified TCR of the combination of βCR and α4 (TCR) TCR alpha: DVYITDKTVLDMRSMDFKSNSAVAWSNKSDFACANAFNNSIIPEDTFFPSPESSCDVKLVEKSFETDTNLNFQNLSVIGFRILLLKVAGFNLLMTLRLWSS TCR beta: EDLKNVFPPEVAVFEPSEAEISHTQKATLVCLATGFYPDHVELSWWVNGKEVHSGVSTDPQPLKEQPALNDSRYCLSSRLRVSATFWQNPRNHFRCQVQFYGLSENDEWTQDRAKPVTQIVSAEAWGRADCGFTSESYQQGVLSATILYEILLGKATLYAVLVSALVLMAMVKRKDSRG | ≥ 80
modified TCR consisting of β1 and α1 (TCR) TCR alpha: YQLRDSKSSDKSVCLFTDFDSQTNVSQSKDSDVYITDKTVLDMRSMDFKSNSAVAWSNKSDFACANAFNNSIIPEDTFFPSPESSCDVKLVEKSFETDTNLNFQNLSVIGFRILLLKVAGFNLLMTLRLWSS TCR beta: SEAEISHTQKATLVCLATGFYPDHVELSWWVNGKEVHSGVSTDPQPLKEQPALNDSRYCLSSRLRVSATFWQNPRNHFRCQVQFYGLSENDEWTQDRAKPVTQIVSAEAWGRADCGFTSESYQQGVLSATILYEILLGKATLYAVLVSALVLMAMVKRKDSRG | ≥ 20
